Consider one sequence from PMC9245472.

This series has as its target T1, ArgR (Thermotoga neapolitana) (UniProt Q9KWZ0).
T1 sequence: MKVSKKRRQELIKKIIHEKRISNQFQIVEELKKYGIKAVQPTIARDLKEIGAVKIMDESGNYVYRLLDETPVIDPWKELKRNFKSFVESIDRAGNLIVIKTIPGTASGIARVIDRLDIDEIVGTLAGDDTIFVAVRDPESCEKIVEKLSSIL
In words: EMSA. Particulars: 10 mM Tris-HCl pH 7.5, 250 mM KCl, 5 mM MgCl2, 2.5 mM CaCl2, 2.5% glycerol, 0.5 mM DTT, 100-fold sonicated herring sperm DNA, 37 C 30 min; 2% agarose in TAE …. For orientation: A gel shift assay detects complexes by their altered migration in electrophoresis.

Regarding “TGTTACTCTTGAGTTACCAAAACAAAAACAAATGAATTTTTCTTCCAGAGGTGTTATATTTATGCTGTATAATTGTATGTGTTTTCAATCTGAAAGATGGAGGTGTTCAACTTGAAGGTGTCGAAAAAAAGAAGACAGGAACTCATAA (double strand) [argRo (ArgRTn)]”, the binding result is recorded as “binds”.
